For experiment [1], the target named is untagged-cpAQP1aa-243 (C-terminally truncated aquaporin 1aa from Anabas testudineus, climbing perch) (Anabas testudineus (climbing perch)). Description: crystal structure; untagged-cpAQP1aa-243, hanging-drop vapor diffusion, 4°C; reservoir 300 mM lithium sulfate, 100 mM ADA pH 6.5, 30% PEG400, dextran sulfate additive; space group C222_(1), four monomers in the asymmetric unit; 3.5 Å.

For experiment [2] the target is unchanged. Description: crystal structure; untagged-cpAQP1aa-243, hanging-drop vapor diffusion, 4°C; reservoir 100 mM Tris-HCl pH 7.8, 5% γ-PGA, 30% PEG400, D-sorbitol additive; space group P42_(1)2, one monomer in the asymmetric unit; 1.9 Å.

As to “untagged-cpAQP1aa-243 (C-terminally truncated aquaporin 1aa from Anabas testudineus, climbing perch) (domain or fragment)”, the stoichiometry N in experiment [1] and in experiment [2] was 4 each time.

In general, stoichiometry N refers to a count of units in the complex or per binding partner.

Values taken from article PMC9559756.
